# From the RNAGym collection of RNA variant scans (doi:10.1073/pnas.2313332121)
# B1: TPR t1 (parent)
# chain: GACCAAUCUGCCCUCAGAGCUCGAGAACAUCUUCGGAUGCAGAGGAGGCAGGCUUCGGUGGCGCGAUAGCGCCAACGUCCUCAACCUCCAAUGCAUCCCACCACAUGAUGAUGCCUGAAGAGCCUUGGUUUUUUG
# Variants of: B1
# Test: polymerase ribozyme fitness, log enrichment relative to wild type (log ratio); higher = more active; in vitro selection for triplet polymerase activity
# Procedure, shortened: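 Fitness measures genotype enrichment against wild-type enrichment on a logarithmic scale, with inverse-variance-weighted averaging of replicates. The logarithm is base 2, and genotypes were kept only with ≥10 input reads and ≥1 read per output in Illumina sequencing. The sequenced libraries came from one triplicate in vitro selection round, including frozen incubation at −7 °C, of PCR-built, transcribed mutant libraries of each subunit of a heterodimeric triplet polymerase ribozyme.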
row,Variant,polymerase ribozyme fitness (log ratio)
1,GACCAAUUUGCCCUCAGAGCUCGAGAACGUCUUCGGAUGCAGAGGAGGCAGGCUUCGGUGGCGCGAUAGCGCCAACGUCCUCAACCUCCAAUGAAUCCCACCACAUGAUGAUGCCGGAAGAGCCUUGGUUUUUUG [C8U A29G C94A U116G],-2.84
2,GACCAAUUUGCCCUCAGAGCUCGAGAACAUCUUCGGUUGCAGAGGAGGCAGGCUUCGGUGGCGCGAUAGAGCCAACGUCCUCAACCUCCAAUGCAUCCCACCACAUGAUGACGCCUGAAGAGCCUUGGUUUUUUG [C8U A37U C70A U112C],0.338
3,GACCAAUUUGCCCUCAGAGCUCGAGAACUUCUUCGGAUGCAGAGGAGGCAGGCUUCGGUGGCGCGAUAGCGACAACGUCCUCAACCUCCAAUGCAUCCCACCACAUGAUGAUGCCUGAAGAGCCUUGGUUUUUUG [C8U A29U C72A],-1.79
4,GACCAAUUUGGCUUCAGAGAUCGAGAACAUCUUCGGAUGCAGAGGAGGCAGGCUUCGGUGGCGCGAUACCGCCAACGUCCUACACCUCCAAUGCAUCUCACCACAUGAUGAGGCCUGAAGAGCCUUGGUUUUUUG [C8U C11G C13U C20A G69C C82A A83C C98U U112G],-4.19
5,GACCAAUUUGCCCUCAGAGCUCGAGAACAUCUUCGGAUGCAGUGGAGGCAGGCUUCGAUGGCGCGAUAGCGCCAACGUUCUCAACCUCCAAUGCAUCCCACCACAUGAUGAUCCCUGGAGAGCCUUGGUUUUUUG [C8U A43U G58A C79U G113C A118G],-3.06
6,GACCAAUUUGCCCUCAGAGCUCGAGAACAUCUUCGGAUGCAGAGGAGGCAGGCUUCGGUGGCGCGAUAGCGCCAACGUCCUCAACCUCCAAUGCAUCCCACCACAUGAUGAUGCCUGAAGGGCCUUGGUUUUUUG [C8U A121G],1.42
7,GACCAAUUUGCCCUCAGAGCUCGAGAACAUCUUCGGAUGCAGAGGAGGCUGGCUUCGGUGGCGCGAUAGCGCCAACGUCCUCAACCUCCAAUGCAUCCCACCACAUGAUGAUGCCUCAAGAGCCUUGGUUUUUUG [C8U A50U G117C],-3.99
8,GACCAAUUUGCCCUCAGAGCUCGAGAACAUCUUCGGAUGCUGAGGAGGCAGGCUUCGGUGGCGCGAUAGCGCCAACGUCCUCAACCUCCAAUGCAUUCCACCACAUGAUGAUGCCUGAAGAGCCUUGGUUUUUUG [C8U A41U C97U],-0.942
9,GACCAAUUUGCCCUCAGAGCUCGAGAGCAUCUUCGGAUGCAUAGGAGGCAGGCUUAGGUGGCGCGAUAGCGCCCACGUCCUCAACCUCUAAUGCAUCCCACCACAUGAUGCUGCCUGAAGAGCCUUGGUUUUUUG [C8U A27G G42U C56A A74C C89U A111C],-5.47
10,GACCAAUUUGCCCUCAGAGCUCGAGAACAUCUUCGGUUGCAGAGGAGGGAGGCUACGGUGGCGCGAUAGCGCCAACGUCCUCAACCUCCAAUGCAUCCCACCAAAUGAUGAUGCCUGAAGAGCCUUGGUUUUUUG [C8U A37U C49G U55A C104A],-1.74
11,GACCAAUUUGCCCUCAGAGCUCGAGAACUUCUUCGGAUGCAGAGGAGGCAGGCUUCGGUGGCGCGAUAGAGCCAACGUCCUCAACCACCAAUGCAUCCCACCACAUGAUGAUGCCUGAAGAGCCUUGGUUUUUUG [C8U A29U C70A U87A],-2.4
12,GACCAAUUUGCCCUCAGAGCUCGAGAACAUCUUCGGAUGCCGAGGAGGCAGGCUUCGUUGGCGCGAUAGCGCCAACGUCCUCAACCUCCAAUGGAUCCCACCAUAAGAUGACGCCUGAAGAGCCUUGGUUUUUUG [C8U A41C G58U C94G C104U U106A U112C],-3.18
13,GACCAAUUUGCCCUCAGAGCUCGAGAACAUCUUCGGAUGCAGAGGAGGCAGGCUUCGGUGGCGCGAUGGCGCCAACGUCCUCAACCUCCAAUGCAUCCCACCACAUGAUGCUGCCUGAAGAGCCUUGGUUUUUUG [C8U A68G A111C],-3.15
14,GACCAAUUUGCCCUCAGAGCUCGAGGACAUCUUCGGAUGCAGAGGAGGCAGGCCUCGGUUGCGCGAUAGCGCCAACGUCCUCAACCUCCAAUGCAUCCCACCACAUGAUGAUGCCUGAAGAGCCUUGGUUUUUUG [C8U A26G U54C G60U],-2.1
15,GACCAAUUUGCCCUCAGAGCUCGAGAACAUCUUCGGAUGCGGAGGAGGCAGGCUUCGGUGGCGGGAUAGCGCCAACGUCCUCAACCUCCAAUGCAUCCCACCACAUGAUGAUGCCUGAAGAGCCUUGGUUUUUUG [C8U A41G C64G],-6.15
16,GACCAAUUUGCCCUCAGAGCUCGAGAUCAUCUUUGGAUGCAGAGGAGUCAGGCUUCGGUAGCGCGAUAGCGCCAACGUCCUCAACCUCCAAUGCAUCUCACCACAUGAUGACGCCUUAAGAGCCUUGGUUUUUUG [C8U A27U C34U G48U G60A C98U U112C G117U],-7.25
17,GACCAAUUUGCCCUCAGAGCUCGAGAACAUCUUCGGAUGCUGAGGAGGCAGGCUUCGGUGGCGCGAUAGCGCAAACGUCCUCAACCUCCAAUGCAUCCCACCACAUGAUGAUGCCUGAAGAGCCUUGGUUUUUUG [C8U A41U C73A],-0.9
18,GACCAAUUUGCCCUCAGAGCUCGAGGACAUCUUCGGAUGCAGAGGAGGCAGGCCUCGGUGGCGCGAUAGCGUCAACGUCCUCAACCUCCAAUGCAUCCCACCACAUGAUGAUGCCUGAAGAGCCUUGGUUUUUUG [C8U A26G U54C C72U],-2.88
19,GACCAAUUUGCCCUCAGAGCUCGAGAACAUCUUCGGAUGCAGAGGAGGCAGGCUUCGGUGGCGCGAUAGCGCCAACGUCCUCAACCUCCAAUGCAUCCCUCCACAUGAUGAUGCCUGAAGAGCCUUGGUUUUUUG [C8U A100U],-0.0529
20,GACCAAUUUGCCCUCAGAGCUCGAGAACAUCUUCGGAUGCAGAGGAGGCAGGCUUCGGUGGCGCGAUAGCGCCAACGUCCUCAACCUCCAAUGCAUCCCCCCACAUGAUGAUGCCUGAAGAGCCUUGGUUUUUUG [C8U A100C],-0.899
21,GACCAAUUUGGCCUCAGAGCUCGAGAACAUCUUCGGAUGCAGAGGAGGCAGGCUUCGGUGGCGCGAUAGUGCCAACGUCCUCAACCUCCAAUACAUCCCACCACAUGAUGAUGCCUGAAGAGCCUUGGUUUUUUG [C8U C11G C70U G93A],0.0777

row,Variant,polymerase ribozyme fitness (log ratio)
1,GACCAAUUUGCCCUCAGAGCUCGGGAACAUCUUCGGAUGCAGAGGAGGCAGGCUUCGGUGGCGCGAUAGCGCCAACGUCCUCAACCUCCAAUGCAUCCCACCACAUGAUGAUUUCUGAAGAACCUUGGUUUUUUG [C8U A24G G113U C114U G122A],-1.73
2,GACCAAUUUGCCCUCAGAGCUCGAGACCAUCUUCGGAUGCAGAGGAGGCAGGCUUCGGUGGCGCGAUAGCGUCAACGUCAUCAACCUCCAAUGCAUCCCACCACAUGAUGAUGCCUGAAGAGCCUUGGUUUUUUG [C8U A27C C72U C80A],-6.42
3,GACCAAUUUGCCCUCAGAGCUCGAGAACAUCUUCGGAUGCAGAGGGGGCAGGCUUGGGUGGCGCGAUAGCGCCAACGUCCUCAACCUCCAAUGCAUCCCACCACAUGAUGAUGCCUGAAGAGCCUUGGUUUUUUG [C8U A46G C56G],-0.511
4,GACCAAUUUGCCCUCAGAGCUCGAGAACUUCUUCGGAUGCAGAGGACGCAGGCUUCGGUGGCGCGAUAGCGUCAACGUCCUCAACCUCCAAUGCAUCCCACAACAUGAUGAUGCCUGAAGAGCCUUGGUUUUUUG [C8U A29U G47C C72U C102A],-5.13
5,GACCAAUUUGCCCUCAGAGCUCGAGAACAUCUUCGGUUGCAGAGGAGGCAGGCUUUGGUGGCGCGAUAGCGCCAACGUCCUCCACCUCCAAUGCAUUCCACCACAUGAUGAUGCCUGAAGAGCAUUGGUUUUUUG [C8U A37U C56U A83C C97U C124A],-1.47
6,GACCAAUUUGCCCUCAGUGCUCGAGAACAUCUUCGGAUGCAGAGGAGGCAGGCUUCGGUGGCGCGAUAGCGCCAACGUCCUCAACCUCCAAUGCAUCCCACCACAUGAUGAUGCCCGAAGAGCCUUGGUUUUUUG [C8U A18U U116C],-2.04
7,GACCAAUUUGCCCUCAGAGCUCGAGAACAUCUUCGGAUGCAGAGGUGGCAGGCUUCGGUGACGCGAUAGCGCCAACGUCCUCAACCUCCAAUGCAUCCCAACACAUGAUGAUUCCUGAAGAGCCUUGGUUUUUUG [C8U A46U G61A C101A G113U],-2.36
8,GACCAAUUUGACCUCAGAGCUCGAGAACAUCUUCGGAUGCAGAGGAGGCAGGCUUCGGUGGCGCGAUAGCGCCAACGUCCUCAACCUCCAAUGCAUCCCACCACAUGAUGAUGCCUGAAGAGCUUUGGUUUUUUG [C8U C11A C124U],1.17
9,GACCAAUUUGCCCUCAGAGCUCGAGAACAUCUUCGGUUGCAGAGGAGGCAGGCUUCGGUGGCGCGAUAGCGCCAACGUCCUCAACAUCCAAUGCAUCCCACCACAUGAUGAUGCCUGAAGAGCCUUGGUUUUUUG [C8U A37U C86A],-0.897
10,GACCAAUUUGCCCUCAGAGCUCGAGAACAUCUUCGGGUGCAGAGGAGGCAGGCUUCGGUGUCGCGAUAGCGCCAACGUCCUCAACCUCCAAUGCAUCCCACCACAUGAUGAUGCCUGAAGAGCCUUGGUAUUUUG [C8U A37G G61U U130A],-0.107
11,GACCAAUUUGCCCUCAGAGCUCGAGAACAUCUUCGGAUGCAGAGGAGGCAGGCUUCGGUGGCGCGAUAGCGCCAUCGUCCUCAACCUCUUAUGCAUCCUACCACAUGAUGAUGCCUGAAAAGCCUUGGUGAUUUG [C8U A75U C89U A90U C99U G120A U130G U131A],-4.88
12,GACCAAUUUGCCCUCAGAGCUCGAGAACAUCUUCGGGUGCAGAGGAGGCAGACUUUGGUGGCGCGAUAGCGCCAACGUCCUCAACCUCCAAUGCAUCCCACCACAUGAUGAUGCCUGAAGAGCCUUGGUUUUUUG [C8U A37G G52A C56U],-0.753
13,GACCAAUUUGCCCUCAGAGCUCGAGAACAUCUUCGGAUGCAGAGGAGGCAGGCUUCGGUGGCGCGAUAGCGCCAACGUCCUCAACCUCCAAUGCAUCCCACCACCUGAUGAUGCCUGAAGAGCCUUGGUUUUUUG [C8U A105C],-2.01
14,GACCAAUUUGCCCUCAGAGCUCGAGAACAUCUUCGGAUGCAGAGGAGGCUGGCUUCGGUGGCGCGAUAUCGCCAACGUCCUCAACCUCCAAUGCAUCCCACCACAUGAUGAUGCCUGAAGAGCCUUGGUUUUUUG [C8U A50U G69U],-0.24
15,GACCAAUUUGCCCUCAGAGCUCGAGAACAUCUUCGGAUGCAGAGGAGGCAGGCUUCGGUGGCGCGAUAGCGCCAACGUCCUCAACCUCCAUUGCAUCCCACCACAUGAUGAUGCCUGAAGAGCCUUGGUAUUUUG [C8U A91U U130A],-1.26
16,GACCAAUUUGCCCUCAGAGCUCGAGAACAUCUUCGGAUGCAGAGGCGGCAGGCUUCGGUGGCGCGAUAGCGCCAACGUCCUCAACCUCCAAUGCAUCCCACCACAUGAUGAUGCCUGAACAGCCUUGGUUUUUUG [C8U A46C G120C],1.49
17,GACCAAUUUGCCCUCAGAGCUCGAGAACAUCUUCGGAUGCAGAGGAGGCAGGCUUCGGUGGCGCGAUAGCGCCAACGUCCUCAACCUCCAAUGCAUCCCACCACAUGAUGGUGCCUGAAGAGCCUUGGUUUUUUG [C8U A111G],1.25
18,GACCAAUUUGGCCUCAGAGCUCGAGAACAUCUUCGGAUGCAGAGGAGCCAGGCUUUGGUGGCGUGAUAGCGCCAACGUCCUCAACCUCUAAUGCAUCCCACCACAUGAUGAUGCCUUAAGAGCCUUGGUUUUUUG [C8U C11G G48C C56U C64U C89U G117U],-5.48
19,GACCAAUUUGCCCUCAGAGCUCGAGAACAUCUUCGGAUGCAGAGGGGGCAGGCCUAGGUGGCGCGAUAGCGCCAACGUCCUCAACCUCCAAUGCAUCCCACCACAUGAUGAUGCCUGAAGAGCCUUGGUUUUUUG [C8U A46G U54C C56A],-0.306
20,GACCAAUUUGCCCUCAGAGCUCGAGAACAUCUUCGGAUGCAGAGGAGGCAGGCUUCGGUGGCGCGAUAGCGCCAACGUCCUCUAUCUCCAAUGCAUCCCACCACAUGAUGAUGCCUGAAGAGGGUUGGUUUUUUG [C8U A83U C85U C123G C124G],2.01
21,GACCAAUUUGCCCUCAGAGCUCGAGAACAUCUUCGGAUGCAGAGGAGGCAGGCUUCGGUGGCGCGAUAGCGCCAACGUCCUCAACCUCCAAUGCAUCCCACCACAUGAUGAUGCCUGGAGAGCCUUGGUUUUUUG [C8U A118G],-0.114
